{"source": "patent US20050208610", "key": {"[1]": {"molecular_target": "T1, peptide CR006 (amino acids 49-62)", "T1 chain": "SLKDYWSTVKDKFS"}, "[2]": {"molecular_target": "T2, peptide CR002 (amino acids 41-60)", "T2 chain": "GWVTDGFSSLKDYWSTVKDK"}}, "data": [{"protein": "TF:VIIa complex (protein) chain 1: SGTTNTVAAYNLTWKSTNFKTILEWEPKPVNQVYTVQISTKSGDWKSKCFYTTDTECDLTDEIVKDVKQTYLARVFSYPAGNVESTGSAGEPLYENSPEFTPYLETNLGQPTIQSFEQVGTKVNVTVEDERTLVRRNNTFLSLRDVFGKDLIYTLYYWKSSSSGKKTAKTNTNEFLIDVDKGENYCFSVQAVIPSRTVNRKSTDSPVECMGQEKGEFREIFYIIGAVVFVVIILVIILAISLHKCRKAGVGQSWKENSPLNVS chain 2: ANAFLEELRPGSLERECKEEQCSFEEAREIFKDAERTKLFWISYSDGDQCASSPCQNGGSCKDQLQSYICFCLPAFEGRNCETHKDDQLICVNENGGCEQYCSDHTGTKRSCRCHEGYSLLADGVSCTPTVEYPCGKIPILEKRNASKPQGRIVGGKVCPKGECPWQVLLLVNGAQLCGGTLINTIWVVSAAHCFDKIKNWRNLIAVLGEHDLSEHDGDEQSRRVAQVIIPSTYVPGTTNHDIALLRLHQPVVLTDHVVPLCLPERTFSERTLAFVRFSLVSGWGQLLDRGATALELMVLNVPRLMTQDCLQQSRKVGDSPNITEYMFCAGYSDGSKDSCKGDSGGPHATHYRGTWYLTGIVSWGQGCATVGHFGVYTRVSQYIEWLQKLMRSEPRPGVLLRAPFP", "values": [{"measurement": "2-stage chromogenic substrate assay that determines TF:VIIa-mediated activation of factor X", "setting": "[1]", "result": "Progressive loss of potency was shown as additional N-terminal residues were removed (CR006; amino acids 49-62)"}, {"measurement": "2-stage chromogenic substrate assay that determines TF:VIIa-mediated activation of factor X", "setting": "[2]", "result": "retained the ability to inhibit TF:VIIa mediated activation of factor X, but at much lower potency than the apolipoprotein CIII fragment"}, {"measurement": "2-stage chromogenic substrate assay that determines TF:VIIa-mediated activation of factor X", "setting": "peptide CR005", "result": "showed no inhibitory activity in the chromogenic substrate assay"}, {"measurement": "2-stage chromogenic substrate assay that determines TF:VIIa-mediated activation of factor X", "setting": "peptide CR004", "result": "showed no inhibitory activity in the chromogenic substrate assay"}, {"measurement": "2-stage chromogenic substrate assay that determines TF:VIIa-mediated activation of factor X", "setting": "peptide CR003", "result": "showed no inhibitory activity in the chromogenic substrate assay"}]}]}
